Source: patent publication US20240199745A1, “ANTI-EGFR ANTIBODY DRUG CONJUGATES” (priority 2016, published 2024)
Substitutions are numbered along the chain they refer to.

B1: AbA-CZ (antibody, human IgG1, kappa, V domains shown)
VH: EVQLQESGPGLVKPSQTLSLTCTVSGYSISRDFAWNWIRQPPGKGLEWMGYISYNGNTRYQPSLKSRITISRDTSKNQFFLKLNSVTAADTATYYCVTASRGFPYWGQGTLVTVSS
VL: DIQMTQSPSSMSVSVGDRVTITCHSSQDINSNIGWLQQKPGKSFKGLIYHGTNLDDGVPSRFSGSGSGTDYTLTISSLQPEDFATYYCVQYAQFPWTFGGGTKLEIKR
modifications: synthon CZ on reduced interchain cysteines; average DAR 3.2 per ADC
B2: AbG-SR (antibody, human IgG1, kappa, V domains shown)
VH: B1 VH with R31N, P41L, N55K, F103L
VL: B1 VL with N30T, S31Y, T52A, A92D, Q93E
modifications: synthon SR on reduced interchain cysteines; average DAR 2.8 per ADC
B3: AbA-SR (antibody, human IgG1, kappa, V domains shown)
VH: B1 VH
VL: B1 VL
modifications: synthon SR on reduced interchain cysteines; average DAR 2.3 per ADC
B4: AbK-SR (antibody, human IgG1, kappa, V domains shown)
VH: B1 VH with Y105W
VL: B1 VL with N30T, S31Y, I33V, T52S, D56H, A92D, Q93D
modifications: synthon SR on reduced interchain cysteines; average DAR 2.3 per ADC
B5: AbB-ZT (antibody, human IgG1, kappa, V domains shown)
VH: B1 VH with R31N, N55K, Y105W
VL: B1 VL
modifications: synthon ZT on reduced interchain cysteines; average DAR 1.4 per ADC
B6: AbB-YY (antibody, human IgG1, kappa, V domains shown)
VH: B1 VH with R31N, N55K, Y105W
VL: B1 VL
modifications: synthon YY on reduced interchain cysteines; average DAR 2.2 per ADC
B7: AbA-YG (antibody, human IgG1, kappa, V domains shown)
VH: B1 VH
VL: B1 VL
modifications: synthon YG on reduced interchain cysteines; average DAR 1.9 per ADC
B8: AbK-KZ (antibody, human IgG1, kappa, V domains shown)
VH: B1 VH with Y105W
VL: B1 VL with N30T, S31Y, I33V, T52S, D56H, A92D, Q93D
modifications: synthon KZ on reduced interchain cysteines; average DAR 2.3 per ADC
B9: AbB-TV (antibody, human IgG1, kappa, V domains shown)
VH: B1 VH with R31N, N55K, Y105W
VL: B1 VL
modifications: synthon TV on reduced interchain cysteines; average DAR 2.3 per ADC
B10: AbG-XW (antibody, human IgG1, kappa, V domains shown)
VH: B1 VH with R31N, P41L, N55K, F103L
VL: B1 VL with N30T, S31Y, T52A, A92D, Q93E
modifications: synthon XW on reduced interchain cysteines; average DAR 3.7 per ADC
B11: AbA-AAD (antibody, human IgG1, kappa, V domains shown)
VH: B1 VH
VL: B1 VL
modifications: synthon AAD on reduced interchain cysteines; average DAR 3.3 per ADC
B12: AbA-SE (antibody, human IgG1, kappa, V domains shown)
VH: B1 VH
VL: B1 VL
modifications: synthon SE on reduced interchain cysteines; average DAR 2.8 per ADC
B13: AbG-SE (antibody, human IgG1, kappa, V domains shown)
VH: B1 VH with R31N, P41L, N55K, F103L
VL: B1 VL with N30T, S31Y, T52A, A92D, Q93E
modifications: synthon SE on reduced interchain cysteines; average DAR 3.8 per ADC
B14: AbA-YY (antibody, human IgG1, kappa, V domains shown)
VH: B1 VH
VL: B1 VL
modifications: synthon YY on reduced interchain cysteines; average DAR 2.2 per ADC
B15: AbK-SE (antibody, human IgG1, kappa, V domains shown)
VH: B1 VH with Y105W
VL: B1 VL with N30T, S31Y, I33V, T52S, D56H, A92D, Q93D
modifications: synthon SE on reduced interchain cysteines; average DAR 2.7 per ADC
B16: AbK-ZT (antibody, human IgG1, kappa, V domains shown)
VH: B1 VH with Y105W
VL: B1 VL with N30T, S31Y, I33V, T52S, D56H, A92D, Q93D
modifications: synthon ZT on reduced interchain cysteines; average DAR 1.3 per ADC
B17: AbB-XW (antibody, human IgG1, kappa, V domains shown)
VH: B1 VH with R31N, N55K, Y105W
VL: B1 VL
modifications: synthon XW on reduced interchain cysteines; average DAR 3.2 per ADC
B18: AbG-YG (antibody, human IgG1, kappa, V domains shown)
VH: B1 VH with R31N, P41L, N55K, F103L
VL: B1 VL with N30T, S31Y, T52A, A92D, Q93E
modifications: synthon YG on reduced interchain cysteines; average DAR 3.7 per ADC
B19: AbB-SE (antibody, human IgG1, kappa, V domains shown)
VH: B1 VH with R31N, N55K, Y105W
VL: B1 VL
modifications: synthon SE on reduced interchain cysteines; average DAR 2.2 per ADC
B20: AbB-TX (antibody, human IgG1, kappa, V domains shown)
VH: B1 VH with R31N, N55K, Y105W
VL: B1 VL
modifications: synthon TX on reduced interchain cysteines; average DAR 2.2 per ADC
B21: AbG-ZZ (antibody, human IgG1, kappa, V domains shown)
VH: B1 VH with R31N, P41L, N55K, F103L
VL: B1 VL with N30T, S31Y, T52A, A92D, Q93E
modifications: synthon ZZ on reduced interchain cysteines; average DAR 1.4 per ADC
B22: AbB-ZZ (antibody, human IgG1, kappa, V domains shown)
VH: B1 VH with R31N, N55K, Y105W
VL: B1 VL
modifications: synthon ZZ on reduced interchain cysteines; average DAR 1.1 per ADC
B23: AbG-KZ (antibody, human IgG1, kappa, V domains shown)
VH: B1 VH with R31N, P41L, N55K, F103L
VL: B1 VL with N30T, S31Y, T52A, A92D, Q93E
modifications: synthon KZ on reduced interchain cysteines; average DAR 2.7 per ADC
B24: AbB-SR (antibody, human IgG1, kappa, V domains shown)
VH: B1 VH with R31N, N55K, Y105W
VL: B1 VL
modifications: synthon SR on reduced interchain cysteines; average DAR 2.1 per ADC
B25: AbA-AAA (antibody, human IgG1, kappa, V domains shown)
VH: B1 VH
VL: B1 VL
modifications: synthon AAA on reduced interchain cysteines; average DAR 2 per ADC
B26: AbB-KZ (antibody, human IgG1, kappa, V domains shown)
VH: B1 VH with R31N, N55K, Y105W
VL: B1 VL
modifications: synthon KZ on reduced interchain cysteines; average DAR 1.9 per ADC
B27: AbA-KZ (antibody, human IgG1, kappa, V domains shown)
VH: B1 VH
VL: B1 VL
modifications: synthon KZ on reduced interchain cysteines; average DAR 2 per ADC
B28: AbK-XW (antibody, human IgG1, kappa, V domains shown)
VH: B1 VH with Y105W
VL: B1 VL with N30T, S31Y, I33V, T52S, D56H, A92D, Q93D
modifications: synthon XW on reduced interchain cysteines; average DAR 2.8 per ADC
B29: AbK-YG (antibody, human IgG1, kappa, V domains shown)
VH: B1 VH with Y105W
VL: B1 VL with N30T, S31Y, I33V, T52S, D56H, A92D, Q93D
modifications: synthon YG on reduced interchain cysteines; average DAR 0.9 per ADC
B30: AbA-XW (antibody, human IgG1, kappa, V domains shown)
VH: B1 VH
VL: B1 VL
modifications: synthon XW on reduced interchain cysteines; average DAR 3.7 per ADC
B31: AbB-CZ (antibody, human IgG1, kappa, V domains shown)
VH: B1 VH with R31N, N55K, Y105W
VL: B1 VL
modifications: synthon CZ on reduced interchain cysteines; average DAR 3.5 per ADC
B32: AbK-ZZ (antibody, human IgG1, kappa, V domains shown)
VH: B1 VH with Y105W
VL: B1 VL with N30T, S31Y, I33V, T52S, D56H, A92D, Q93D
modifications: synthon ZZ on reduced interchain cysteines; average DAR 1.9 per ADC
B33: AbB-YG (antibody, human IgG1, kappa, V domains shown)
VH: B1 VH with R31N, N55K, Y105W
VL: B1 VL
modifications: synthon YG on reduced interchain cysteines; average DAR 1.1 per ADC
B34: AbB-AAD (antibody, human IgG1, kappa, V domains shown)
VH: B1 VH with R31N, N55K, Y105W
VL: B1 VL
modifications: synthon AAD on reduced interchain cysteines; average DAR 2.7 per ADC
B35: AbG-ZT (antibody, human IgG1, kappa, V domains shown)
VH: B1 VH with R31N, P41L, N55K, F103L
VL: B1 VL with N30T, S31Y, T52A, A92D, Q93E
modifications: synthon ZT on reduced interchain cysteines; average DAR 1.6 per ADC

Tests used:
[1] = biological target: human EGFR (huEGFR) over-expressed on mcl-1-/- mouse embryonic fibroblasts (human, UniProt P00533 25-1210); experiment: cell-based or functional assay
[2] = biological target: EGFR on EGFR positive non-small cell lung cancer cells NCI-H1650 (UniProt P00533 25-1210); experiment: cell-based or functional assay

Binder	huEGFR+ mcl-1-/- MEF EC50 [1]	H1650 CTG-3D EC50 [2]	H1650 GFP Flourescence EC50 [2]
B1	0.3 nM	0.88 µg/mL	1.24 µg/mL
B2	7 nM	1.31 µg/mL	1.38 µg/mL
B3	5.9 nM	2.12 µg/mL	2.22 µg/mL
B4	8.9 nM	1.74 µg/mL	1.36 µg/mL
B5	8.9 nM	0.26 µg/mL	0.64 µg/mL
B6	51 nM	8.6 µg/mL	7.73 µg/mL
B7	6.4 nM	3.8 µg/mL	2.84 µg/mL
B8	224 nM	> 40 µg/mL	> 40 µg/mL
B9	2.4 nM	0.86 µg/mL	0.74 µg/mL
B10	19 nM	> 40 µg/mL	> 40 µg/mL
B11	65 nM	0.79 µg/mL	0.36 µg/mL
B12	105 nM	4 µg/mL	4.23 µg/mL
B13	24 nM	0.96 µg/mL	0.99 µg/mL
B14	460 nM	> 40 µg/mL	7.85 µg/mL
B15	161 nM	2.67 µg/mL	1.68 µg/mL
B16	0.2 nM	0.05 µg/mL	0.12 µg/mL
B17	0.65 nM	6.92 µg/mL	12.1 µg/mL
B18	1 nM	1.24 µg/mL	0.63 µg/mL

Binder	huEGFR+ mcl-1-/- MEF EC50 [1]	H1650 CTG-3D EC50 [2]	H1650 GFP Flourescence EC50 [2]
B19	39 nM	0.59 µg/mL	2.18 µg/mL
B20	11 nM	2.39 µg/mL	3.72 µg/mL
B21	68 nM	0.47 µg/mL	0.44 µg/mL
B22	7.4 nM	0.52 µg/mL	0.61 µg/mL
B23	96 nM	38.3 µg/mL	38.2 µg/mL
B24	7 nM	0.62 µg/mL	2.1 µg/mL
B25	220 nM	0.65 µg/mL	0.98 µg/mL
B26	55 nM	16.5 µg/mL	37.7 µg/mL
B27	152 nM	> 40 µg/mL	29.3 µg/mL
B28	0.6 nM	> 40 µg/mL	8.53 µg/mL
B29	37 nM	12.3 µg/mL	10.4 µg/mL
B30	32 nM	> 40 µg/mL	> 40 µg/mL
B31	5.9 nM	1.27 µg/mL	0.88 µg/mL
B32	45 nM	0.03 µg/mL	0.16 µg/mL
B33	3.3 nM	3.28 µg/mL	1.55 µg/mL
B34	4.6 nM	0.16 µg/mL	0.59 µg/mL
B35	33 nM	0.1 µg/mL	0.08 µg/mL
